Measurements published in the supplement of paper PMC9112550, “Optimization of the antimicrobial peptide Bac7 by deep mutational scanning” (BMC Biology, 2022).

test system: Escherichia coli TOP10; assay: shrunken log2 fold change of peptide-encoding DNA abundance (4.5 h post-induction vs induction); higher = less antimicrobial activity (less host growth inhibition); conditions: time post-induction: 4.5 h; library: site-saturation at positions 5, 18, 19, 20
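Further: peptides expressed intracellularly from a pBAD plasmid library in pooled LB shake-flask culture, induced with 0.3% L-arabinose, DNA abundance read by NGS, three biological replicates, DESeq2 with apeglm shrinkage.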

Sequence | shrunken log2 fold change
RRIRTRPPRLPRPRPRPAKVPRP | -0.29
RRIRTRPPRLPRPRPRPAKYPRP | -0.355
RRIRTRPPRLPRPRPRPAMDPRP | -0.708
RRIRTRPPRLPRPRPRPAMMPRP | -0.109
RRIRTRPPRLPRPRPRPAMPPRP | 0.131
RRIRTRPPRLPRPRPRPANAPRP | -0.0933
RRIRTRPPRLPRPRPRPANLPRP | -0.0546
RRIRTRPPRLPRPRPRPANPPRP | 0.0504
RRIRTRPPRLPRPRPRPAPYPRP | 0.151
RRIRTRPPRLPRPRPRPAQAPRP | -0.0199
RRIRTRPPRLPRPRPRPAQDPRP | 0.111
RRIRTRPPRLPRPRPRPAQGPRP | 0.228
RRIRTRPPRLPRPRPRPAQQPRP | 0.233
RRIRTRPPRLPRPRPRPATAPRP | 0.362
RRIRTRPPRLPRPRPRPATPPRP | 0.499
RRIRTRPPRLPRPRPRPAVMPRP | 0.06
RRIRTRPPRLPRPRPRPAWFPRP | 0.131
RRIRTRPPRLPRPRPRPAWHPRP | 0.282
RRIRTRPPRLPRPRPRPAWKPRP | 0.0317
RRIRTRPPRLPRPRPRPAWYPRP | -0.172
RRIRTRPPRLPRPRPRPAYNPRP | -0.355
RRIRTRPPRLPRPRPRPAYRPRP | -0.111
RRIRTRPPRLPRPRPRPAYTPRP | -0.149
RRIRTRPPRLPRPRPRPCARPRP | -0.187
RRIRTRPPRLPRPRPRPCCSPRP | 0.123

Sequence | shrunken log2 fold change
RRIRTRPPRLPRPRPRPCCWPRP | 0.0822
RRIRTRPPRLPRPRPRPCDPPRP | -0.072
RRIRTRPPRLPRPRPRPCEQPRP | 0.0027
RRIRTRPPRLPRPRPRPCFGPRP | 0.000833
RRIRTRPPRLPRPRPRPCFVPRP | -0.454
RRIRTRPPRLPRPRPRPCHAPRP | -0.0567
RRIRTRPPRLPRPRPRPCIQPRP | 0.0196
RRIRTRPPRLPRPRPRPCKAPRP | -0.00146
RRIRTRPPRLPRPRPRPCKEPRP | -0.00136
RRIRTRPPRLPRPRPRPCKQPRP | -0.254
RRIRTRPPRLPRPRPRPCLCPRP | -0.29
RRIRTRPPRLPRPRPRPCLNPRP | -0.000349
RRIRTRPPRLPRPRPRPCMFPRP | -0.515
RRIRTRPPRLPRPRPRPCMNPRP | -1.43
RRIRTRPPRLPRPRPRPCRGPRP | -0.398
RRIRTRPPRLPRPRPRPCRMPRP | -0.261
RRIRTRPPRLPRPRPRPCRQPRP | -0.303
RRIRTRPPRLPRPRPRPCSEPRP | -0.0314
RRIRTRPPRLPRPRPRPCTVPRP | -0.442
RRIRTRPPRLPRPRPRPCVGPRP | -0.013
RRIRTRPPRLPRPRPRPCYFPRP | -0.616
RRIRTRPPRLPRPRPRPCYPPRP | -0.425
RRIRTRPPRLPRPRPRPCYRPRP | -0.0575
RRIRTRPPRLPRPRPRPDAAPRP | 0.424
RRIRTRPPRLPRPRPRPDAFPRP | -0.014

Sequence | shrunken log2 fold change
RRIRTRPPRLPRPRPRPDCWPRP | 0.0105
RRIRTRPPRLPRPRPRPDDEPRP | 0.0101
RRIRTRPPRLPRPRPRPDDHPRP | -0.00476
RRIRTRPPRLPRPRPRPDDMPRP | -0.0233
RRIRTRPPRLPRPRPRPDEHPRP | -0.0955
RRIRTRPPRLPRPRPRPDFAPRP | 0.176
RRIRTRPPRLPRPRPRPDFLPRP | -0.169
RRIRTRPPRLPRPRPRPDFMPRP | -0.15
RRIRTRPPRLPRPRPRPDIDPRP | 0.0151
RRIRTRPPRLPRPRPRPDIWPRP | -0.392
RRIRTRPPRLPRPRPRPDKFPRP | 0.116
RRIRTRPPRLPRPRPRPDKRPRP | -0.0389
RRIRTRPPRLPRPRPRPDLEPRP | -0.00853
RRIRTRPPRLPRPRPRPDNMPRP | -0.909
RRIRTRPPRLPRPRPRPDPDPRP | -0.0398
RRIRTRPPRLPRPRPRPDPMPRP | -0.0555
RRIRTRPPRLPRPRPRPDPVPRP | -0.216
RRIRTRPPRLPRPRPRPDQCPRP | 0.0333
RRIRTRPPRLPRPRPRPDQSPRP | -0.0809
RRIRTRPPRLPRPRPRPDREPRP | -0.0115
RRIRTRPPRLPRPRPRPDRKPRP | 0.00258
RRIRTRPPRLPRPRPRPDRLPRP | 0.0294
RRIRTRPPRLPRPRPRPDRTPRP | -0.442
RRIRTRPPRLPRPRPRPDSCPRP | -0.311
RRIRTRPPRLPRPRPRPDVAPRP | -0.0174

Sequence | shrunken log2 fold change
RRIRTRPPRLPRPRPRPDVEPRP | 0.053
RRIRTRPPRLPRPRPRPDVFPRP | 0.0603
RRIRTRPPRLPRPRPRPDWHPRP | -0.053
RRIRTRPPRLPRPRPRPDYIPRP | -0.323
RRIRTRPPRLPRPRPRPDYLPRP | -1.61
RRIRTRPPRLPRPRPRPECRPRP | 0.569
RRIRTRPPRLPRPRPRPEEKPRP | 0.167
RRIRTRPPRLPRPRPRPEFGPRP | 0.0617
RRIRTRPPRLPRPRPRPEFPPRP | 0.0504
RRIRTRPPRLPRPRPRPEFVPRP | 0.107
RRIRTRPPRLPRPRPRPEGVPRP | 0.122
RRIRTRPPRLPRPRPRPEHCPRP | -0.0755
RRIRTRPPRLPRPRPRPEIPPRP | -0.104
RRIRTRPPRLPRPRPRPEKIPRP | 0.0436
RRIRTRPPRLPRPRPRPELFPRP | 0.039
RRIRTRPPRLPRPRPRPEMKPRP | 0.258
RRIRTRPPRLPRPRPRPENSPRP | 0.032
RRIRTRPPRLPRPRPRPEPKPRP | 0.376
RRIRTRPPRLPRPRPRPEQQPRP | 0.436
RRIRTRPPRLPRPRPRPESLPRP | -0.00987
RRIRTRPPRLPRPRPRPESWPRP | 0.809
RRIRTRPPRLPRPRPRPETVPRP | 0.0349
RRIRTRPPRLPRPRPRPEWHPRP | 0.0594
RRIRTRPPRLPRPRPRPEWNPRP | -0.05
RRIRTRPPRLPRPRPRPEWSPRP | 0.0383

Sequence | shrunken log2 fold change
RRIRTRPPRLPRPRPRPFALPRP | -0.0597
RRIRTRPPRLPRPRPRPFAMPRP | -0.348
RRIRTRPPRLPRPRPRPFAYPRP | -0.136
RRIRTRPPRLPRPRPRPFCAPRP | -0.00433
RRIRTRPPRLPRPRPRPFCMPRP | -0.24
RRIRTRPPRLPRPRPRPFDRPRP | 0.0237
RRIRTRPPRLPRPRPRPFDYPRP | -0.0205
RRIRTRPPRLPRPRPRPFECPRP | -0.143
RRIRTRPPRLPRPRPRPFEMPRP | -0.376
RRIRTRPPRLPRPRPRPFEWPRP | -0.0651
RRIRTRPPRLPRPRPRPFFPPRP | 0.191
RRIRTRPPRLPRPRPRPFIRPRP | 0.00496
RRIRTRPPRLPRPRPRPFISPRP | -0.0743
RRIRTRPPRLPRPRPRPFIYPRP | -0.657
RRIRTRPPRLPRPRPRPFLYPRP | -0.786
RRIRTRPPRLPRPRPRPFMKPRP | -0.661
RRIRTRPPRLPRPRPRPFPDPRP | -0.123
RRIRTRPPRLPRPRPRPFPKPRP | -0.112
RRIRTRPPRLPRPRPRPFPMPRP | -0.596
RRIRTRPPRLPRPRPRPFQCPRP | -0.0173
RRIRTRPPRLPRPRPRPFRCPRP | 0.0246
RRIRTRPPRLPRPRPRPFRVPRP | -0.108
RRIRTRPPRLPRPRPRPFSPPRP | -0.375
RRIRTRPPRLPRPRPRPFVEPRP | -0.284
RRIRTRPPRLPRPRPRPFVFPRP | -0.295

Sequence | shrunken log2 fold change
RRIRTRPPRLPRPRPRPFWFPRP | 0.526
RRIRTRPPRLPRPRPRPFYDPRP | -0.382
RRIRTRPPRLPRPRPRPFYIPRP | -0.57
RRIRTRPPRLPRPRPRPFYLPRP | -0.522
RRIRTRPPRLPRPRPRPGAIPRP | -0.0669
RRIRTRPPRLPRPRPRPGCAPRP | 0.515
RRIRTRPPRLPRPRPRPGCHPRP | -0.136
RRIRTRPPRLPRPRPRPGCNPRP | 0.0386
RRIRTRPPRLPRPRPRPGEPPRP | -0.026
RRIRTRPPRLPRPRPRPGFAPRP | 0.33
RRIRTRPPRLPRPRPRPGGDPRP | 0.46
RRIRTRPPRLPRPRPRPGGHPRP | 0.0329
RRIRTRPPRLPRPRPRPGHAPRP | 0.161
RRIRTRPPRLPRPRPRPGHHPRP | -0.27
RRIRTRPPRLPRPRPRPGITPRP | -0.104
RRIRTRPPRLPRPRPRPGMTPRP | -0.2
RRIRTRPPRLPRPRPRPGNYPRP | 0.0108
RRIRTRPPRLPRPRPRPGQIPRP | 0.0034
RRIRTRPPRLPRPRPRPGQNPRP | 0.138
RRIRTRPPRLPRPRPRPGQWPRP | 0.0938
RRIRTRPPRLPRPRPRPGSFPRP | 0.00381
RRIRTRPPRLPRPRPRPGTYPRP | 0.0862
RRIRTRPPRLPRPRPRPGVLPRP | 0.08
RRIRTRPPRLPRPRPRPGWHPRP | -0.014
RRIRTRPPRLPRPRPRPGWNPRP | -0.039
